Measurements from patent publication US20210347873A1 (SHANGHAI PHARMAEXPLORER, published 2021).

Columns and labels:
[1] = target: biotinylated hBLyS-ECD (human) (UniProt Q9Y275); assay: ELISA, coated antibody; biotinylated hBLyS-ECD 0.1 ng/mL
[2] = target: biotinylated hBLyS-ECD (human) (UniProt Q9Y275); assay: ELISA, coated antibody; biotinylated hBLyS-ECD 0.5 ng/mL
[3] = target: biotinylated hBLyS-ECD (human) (UniProt Q9Y275); assay: ELISA, coated antibody; biotinylated hBLyS-ECD 0.02 ng/mL
[4] = target: biotinylated hBLyS-ECD (human) (UniProt Q9Y275); assay: ELISA, coated antibody; biotinylated hBLyS-ECD 0.004 ng/mL
[5] = target: biotinylated hBLyS-ECD (human) (UniProt Q9Y275); assay: ELISA, coated antibody; biotinylated hBLyS-ECD 0.0008 ng/mL
[6] = target: biotinylated hBLyS-ECD (human) (UniProt Q9Y275); assay: ELISA, coated antibody; biotinylated hBLyS-ECD 0.00016 ng/mL
[7] = target: biotinylated hBLyS-ECD (human) (UniProt Q9Y275); assay: ELISA, coated antibody; biotinylated hBLyS-ECD 0.000006 ng/mL
[8] = target: biotinylated hBLyS-ECD (human) (UniProt Q9Y275); assay: ELISA, coated antibody; biotinylated hBLyS-ECD 0.000032 ng/mL
[9] = target: T1, biotinylated hBLyS-ECD (human, UniProt Q9Y275 134-285, biotinylated with Biotin-X-X-NHS (molar ratio 7:1), sites not stated); assay: ELISA, biotinylated hBLyS-ECD captured on streptavidin; antibody 13.3 nM
T1 construct: The hBLyS-ECD of Embodiment 1 after biotinylation (Embodiment 2); also called biotinylated immunogen; BLyS protein; not shown: His tag of the pCPC vector
Procedure: (§1) Streptavidin was first diluted to a final concentration of 1.0 μg/mL with PBS, and then 50 μL of diluted streptavidin per well was aliquoted into 96-well ELISA plate, which was subsequently sealed with plastic film and incubated at 4° C. overnight. On the next day the plate was washed four times with the plate washing buffer [PBS buffer containing 0.05% (v/v) Tween20] and added with the blocking solution [PBS buffer containing 0.05% (v/v) Tween20 and 1% (w/w) BSA] and blocked for 2 hours at 37° C. The blocking solution was removed, the biotinylated hBLyS-ECD prepared in Embodiment 2 was diluted with PBS to a final concentration of 50 ng/mL and then aliquoted into the 96-well ELISA plate at 50 μL per well and incubated for 1 hour at 37° C. After rinsing the plate four times with the plate washing buffer [PBS buffer containing 0.05% (v/v) Tween20], 100 μl of the purified lead antibody harvested in Embodiment 1 and 2 was pipetted into each well. After incubation for 1 hour at 37° C., the plate was rinsed four times with the plate washing buffer [PBS buffer containing 0.05% (v/v) Tween20]. HRP-labeled (horseradish peroxidase) secondary antibody (purchased from Sigma) was added in and incubated at 37° C. for 1 hour. The plate was then rinsed four times with the plate washing buffer [PBS buffer containing 0.05% (v/v) Tween20]. 100 μL of TMB substrate was aliquoted into each well and after incubation for 5 minutes at room temperature, 100 μL of stop solution (1.0 N HCl) was aliquoted into each well. A₄₅₀ₙₘ values were read via an ELISA plate reader (SpectraMax M5e purchased from Molecular Devices) and the results were shown in FIGS. 5A-5B and Table 10.

[10] = target: T1, biotinylated hBLyS-ECD; assay: ELISA, biotinylated hBLyS-ECD captured on streptavidin; antibody 2.67 nM
Procedure: as §1

[11] = target: T1, biotinylated hBLyS-ECD; assay: ELISA, biotinylated hBLyS-ECD captured on streptavidin; antibody 66.7 nM
Procedure: as §1

[12] = target: T1, biotinylated hBLyS-ECD; assay: ELISA, biotinylated hBLyS-ECD captured on streptavidin; antibody 0.107 nM
Procedure: as §1

[13] = target: T1, biotinylated hBLyS-ECD; assay: ELISA, biotinylated hBLyS-ECD captured on streptavidin; antibody 0.534 nM
Procedure: as §1

[14] = target: T1, biotinylated hBLyS-ECD; assay: ELISA, biotinylated hBLyS-ECD captured on streptavidin; antibody 0.0213 nM
Procedure: as §1

[15] = target: T1, biotinylated hBLyS-ECD; assay: ELISA, biotinylated hBLyS-ECD captured on streptavidin; antibody 0.00427 nM
Procedure: as §1

[16] = target: T1, biotinylated hBLyS-ECD; assay: ELISA, biotinylated hBLyS-ECD captured on streptavidin; antibody 0 nM (blank)
Procedure: as §1

[17] = target: T2, human BLyS (full length, arginine 132 mutated to histidine) on CHO-K1 cells (human, UniProt Q9Y275 1-285); assay: flow cytometry (FACS) on CHO-K1 hBLyS cells, Alexa 488 secondary antibody
T2 construct: also called hBLyS; CHO-K1 hBLyS
T2 sequence (Q9Y275 other isoform, or with tags, fused parts or gaps limits assumed, change not shown): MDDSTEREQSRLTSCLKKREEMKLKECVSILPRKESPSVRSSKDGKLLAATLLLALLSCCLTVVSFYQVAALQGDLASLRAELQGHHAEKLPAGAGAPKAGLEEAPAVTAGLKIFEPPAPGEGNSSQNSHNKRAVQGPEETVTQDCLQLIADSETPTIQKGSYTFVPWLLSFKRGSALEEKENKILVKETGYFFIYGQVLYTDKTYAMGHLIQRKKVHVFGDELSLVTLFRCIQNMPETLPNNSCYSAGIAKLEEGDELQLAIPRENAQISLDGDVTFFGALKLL
Procedure: (§2) The medium was aspirated completely, and the cells were rinsed once with PBS buffer (purchased from Invitrogen) and then treated with cell dispersion solution (TrypLE™ Express Enzyme, purchased from Life technology) and collected. The detailed steps are as follows: the cells were rinsed once with PBS buffer, after counting, the cells were diluted to 2×10⁶ cells/ml with PBS buffer, blocked with 2% (w/w) fetal bovine serum and incubated on ice for 30 minutes. 200 μL of which per well was aliquoted into a 96-well FACS plate and centrifuged at 2000 rpm at 4° C., then each 100 μL of the lead antibodies obtained from Embodiment 1 and 2 were aliquoted into each well and incubated on ice for 1 hour. […] After centrifuged and rinsed 3 times with FACS buffer, cells were suspended with 200 μL of FACS buffer and the results were detected and analyzed by FACS (FACS Calibur, purchased from BD). It was shown in Tables 12-13 that the lead antibody could bind to human BLyS protein on the cell surface and the lead antibody could cross-react with cynomolgus BLyS. The data in the table is MFI, the average fluorescence intensity of the cell population.

[18] = target: T3, cynomolgus BLyS (full length, arginine 132 mutated to histidine) on CHO-K1 cells (cynomolgus, UniProt Q9Y275 1-285 (human entry)); assay: flow cytometry (FACS) on CHO-K1 cynoBLyS cells, Alexa 488 secondary antibody
T3 construct: also called cyno BLyS; CHO-K1 cynoBLyS
T3 chain: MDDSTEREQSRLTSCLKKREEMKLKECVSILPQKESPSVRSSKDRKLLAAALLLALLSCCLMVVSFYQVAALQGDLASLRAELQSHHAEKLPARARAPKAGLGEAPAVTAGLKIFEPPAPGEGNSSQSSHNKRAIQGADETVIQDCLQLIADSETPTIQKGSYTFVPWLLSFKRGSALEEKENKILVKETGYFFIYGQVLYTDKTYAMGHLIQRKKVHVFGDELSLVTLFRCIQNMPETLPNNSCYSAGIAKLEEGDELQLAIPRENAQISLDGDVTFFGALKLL
Procedure: as §2

[19] = target: T1, biotinylated hBLyS-ECD; assay: ELISA: biotinylated hBLyS-ECD captured on streptavidin, antibody titrated, HRP secondary antibody [label printed at the top of D00004]
Procedure: as §1

[20] = target: T1, biotinylated hBLyS-ECD; assay: ELISA: biotinylated hBLyS-ECD captured on streptavidin, antibody titrated, HRP secondary antibody
[21] = target: T1, biotinylated hBLyS-ECD; assay: as above; remark: listed apart in the source
[22] = target: T1, biotinylated hBLyS-ECD; assay: receptor-ligand blocking ELISA: BAFF R coated, biotinylated hBLyS-ECD added with titrated antibody, HRP-avidin; blocked partner: BAFF R

BLyS antibody (purchased from GSK)
OD450 nm [1]: 3.36 | OD450 nm [2]: 3.39 | OD450 nm [3]: 3.24 | OD450 nm [4]: 3.14 | OD450 nm [5]: 2.01 | OD450 nm [6]: 0.54 | OD450 nm [7]: 0.08 | OD450 nm [8]: 0.19

B1: 8E7D9C7F5 (antibody, V domains shown)
VH: QVQLQQSGVELARPGASVKLSCKASGYTFTSYGISWVKQRTGQALEWIGEIYPRSGNTYYNEKFKGKATLTADKSSSTAYMELRSLTSEDSAVYFCARSGPITTLVATDYGMDYWGQGTSVTVSS
VL: DIVLTQSPASLAVSLGQRATISCRASKSVSTSSYSYMHWYQQKPGQPPKLLIKFASNLESGVPARFSGSGSGTDFTLNIHPVEEEDAATYYCQHSREFPYTFGGGTKLEIK
notes: Mouse hybridoma antibody purified on Protein G
OD450 nm [9]: 2.56 | OD450 nm [10]: 2.53 | OD450 nm [11]: 2.72 | OD450 nm [12]: 0.946 | OD450 nm [13]: 2.06 | OD450 nm [14]: 0.291 | OD450 nm [15]: 0.115 | OD450 nm [16]: 0.0564 | EC50 (read off the curve) [17]: ~0.1 nM | EC50 (read off the curve) [18]: ~0.1 nM | EC50 (read off the curve) [19]: ~0.2 nM

B2: c97A3C2H4 (antibody, human IgG1, V domains shown)
VH: EVKLVESGGGLVQPGGSLKLSCAASGFTFSTYTMSWVRQTPEKRLEWVAYISYGGGSTSYPDTVKGRFTISRDNAKNTLYLQMSSLKSEDTAIYYCTRHVTVVENSMDYWGQGTSVTVSS
VL: DILLTQSPDILSVSPGERVSFSCRASQSIGTSIHWYQQRTNGSPRLLIKYVSESFSGTPSRFSGSGSGTAFTLTINSVESEDIADYYCQQTHSWPWTFGGGTKLEIK
notes: also called BLyS chimeric antibody
EC50 (read off the curve) [20]: ~0.05 nM | EC50 (read off the curve) [21]: ~0.1 nM | IC50 (read off the curve) [22]: ~2 nM

B3: c111D10D6G3 (antibody, human IgG1, V domains shown)
VH: QVQLQQPGAELVKPGASVKMSCKASGYTFTRHWITWVKQRPGQGLEWIGDIFPGSGSINYNEKFKSEATLTVEKSSSTAYMQLSSLTSEDSAVYYCARGDVDVWGTGTTVTVSS
VL: DIQMTQSPSSLSASLGERVSLTCRASQEIRGYLSWLQQKPNGTIKRLIYAASTLDSGVPKRFSATRSGSDFSLTISSLESEDFADYYCLQYASYPFTFGSGTKLEIK
notes: as for B2
EC50 (read off the curve) [20]: ~0.07 nM | IC50 (read off the curve) [22]: ~0.08 nM
